Measured values taken from patent US20100098696A1.

Columns and labels:
[1] = molecular target: Murine FGFR-3(IIIc) expressed on L6 cells (murine) (UniProt Q61851); test: fluorescent antibody 200 nM on FGFR-3 transfected L6 cells, 1 h at 4° C., Odyssey imaging
[2] = molecular target: Murine FGFR-3(IIIc) expressed on L6 cells (murine) (UniProt Q61851); test: fluorescent antibody 200 nM on FGFR-3 transfected L6 cells, 1 h at 37° C. followed by acid stripping, Odyssey imaging
[3] = molecular target: Murine FGFR-3(IIIc) expressed on L6 cells (murine) (UniProt Q61851); test: fluorescent antibody 200 nM on FGFR-3 transfected L6 cells, 1 h at 4° C. followed by acid stripping, Odyssey imaging
[4] = molecular target: Murine FGFR-3(IIIc) expressed on L6 cells (murine) (UniProt Q61851); test: fluorescent antibody 200 nM on FGFR-3 transfected L6 cells, 1 h at 37° C., Odyssey imaging

Sequence of Murine FGFR-3(IIIc) expressed on L6 cells (murine) (Q61851 21-801): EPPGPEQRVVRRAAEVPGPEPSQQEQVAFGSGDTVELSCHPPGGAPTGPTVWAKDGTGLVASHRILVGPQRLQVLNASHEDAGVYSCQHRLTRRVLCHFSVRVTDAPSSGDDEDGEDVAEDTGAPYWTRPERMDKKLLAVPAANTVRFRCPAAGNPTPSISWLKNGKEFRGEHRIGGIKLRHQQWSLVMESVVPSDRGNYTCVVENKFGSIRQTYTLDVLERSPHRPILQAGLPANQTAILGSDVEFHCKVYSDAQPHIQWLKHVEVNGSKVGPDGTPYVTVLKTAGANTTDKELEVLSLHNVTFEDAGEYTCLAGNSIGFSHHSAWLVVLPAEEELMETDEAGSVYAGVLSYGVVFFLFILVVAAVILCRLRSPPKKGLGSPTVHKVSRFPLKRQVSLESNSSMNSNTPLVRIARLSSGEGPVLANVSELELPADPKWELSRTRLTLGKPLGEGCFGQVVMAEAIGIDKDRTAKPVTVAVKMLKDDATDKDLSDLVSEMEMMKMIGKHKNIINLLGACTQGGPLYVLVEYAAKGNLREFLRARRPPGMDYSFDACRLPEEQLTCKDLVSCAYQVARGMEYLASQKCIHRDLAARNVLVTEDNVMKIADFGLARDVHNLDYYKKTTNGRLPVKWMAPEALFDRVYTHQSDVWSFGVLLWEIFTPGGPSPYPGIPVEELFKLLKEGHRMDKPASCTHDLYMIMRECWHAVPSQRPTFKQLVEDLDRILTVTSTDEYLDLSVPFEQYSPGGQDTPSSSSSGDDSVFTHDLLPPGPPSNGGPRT

“isotype-matched non-specific control antibody” was tested, and the relative fluorescent intensity [1] was 1.5, the relative fluorescent intensity [2] was 1 and the relative fluorescent intensity [3] was 0.6. The relative fluorescent intensity [4] was 1.1.
